Laboratory results published in article PMC11543927, “Subtleties in Clathrin heavy chain binding boxes provide selectivity among adaptor proteins of budding yeast” (Nature Communications, 2024).

Tests used:
[1] = test system: Abp1-mTurquoise2 at endocytic sites; assay: Lifetime TIRF microscopy, Abp1+ / Abp1- endocytic events of Ent1/Ent2-mNeonGreen; type: cell-based, Saccharomyces cerevisiae; conditions: Supp. Figure 12; Ent1-mNeonGreen in yeast strains with Chc WT or box mutants (Cla, Cla + Arr, Cla + W); Type ABP+; average of single points
Description: To determine the effect of mutating the CHC-NTD Clathrin, Arrestin and W-boxes in how endocytosis progresses, cells tagged with Ent1/2p-mNeonGreen, Chc-mScarlet and Abp1-mTurquoise2 were used. Yeast cells previously described were grown overnight at 30 °C with shaking in a 24-well plate using LD(=low-fluorescence SD)-Trp^-, Leu^- medium (yeast nitrogen base without amino acids supplemented with the corresponding DropOut media, Foredium, CYN402). Cells were diluted in fresh medium with a starting OD600nm of 0.1 and allowed to grow at 30 °C with shaking for several hours (4-6hs) until they reached log phase (OD600nm 0.6-1.2). Micro slide 8-well glass bottom plates (Catalog 80807, Ibidi, Gräfelfing, Germany) were treated with 50 µL of a 1 mg/ml concanavalin A (prepared in 10 mM sodium phosphate buffer pH 6, 10 mM CaCl2,1 mM MnCl2, 0.01% NaN3, Catalog C2010, Sigma Aldrich) solution, incubated for 5 min and then washed twice with 50 µL of fresh medium. 50 µL of cell suspension was applied, incubated for 5 min and removed. Then each well was washed twice with 50 µL of fresh medium. Finally, 50 µL of fresh medium was added. […]

[2] = biological target: T1, Chc-mScarlet Clathrin, Arrestin and W box mutant (Cla+Arr+W) (Saccharomyces cerevisiae, UniProt P22137 1-1653, F26A | K63E | I87D | Q89A | K98E | Q155A | Q195A | I197T | K251E); assay: FRET or BRET; acceptor photobleaching FRET in living yeast cells at endocytic patches stalled with Latrunculin A, donor mNeonGreen on Ent1/Ent2, acceptor mScarlet on Chc, 21 °C; trimmed mean FRET efficiency; conditions: partners not purified
T1 construct: Clathrin heavy chain, Saccharomyces cerevisiae, the ORF of CHC1 fused in the 3' with mScarlet, Clathrin, Arrestin and W box mutant; also called triple mutant; source: S. cerevisiae MK100, mutated plasmid pRS315-5'UTR CHC-mScarlet, endogenous CHC1 knocked out, in living cells; not shown: mScarlet, C-terminal, kept

[3] = biological target: T2, Chc-mScarlet Clathrin and W box mutant (Cla+W) (Saccharomyces cerevisiae, UniProt P22137 1-1653, F26A | K63E | I87D | Q89A | K98E | Q155A); assay: as above; conditions: partners not purified
T2 construct: Clathrin heavy chain, Saccharomyces cerevisiae, the ORF of CHC1 fused in the 3' with mScarlet, Clathrin and W box mutant; source: S. cerevisiae MK100, mutated plasmid pRS315-5'UTR CHC-mScarlet, endogenous CHC1 knocked out, in living cells; not shown: mScarlet, C-terminal, kept

[4] = biological target: T3, Chc-mScarlet Clathrin and Arrestin box mutant (Cla+Arr) (Saccharomyces cerevisiae, UniProt P22137 1-1653, K63E | I87D | Q89A | K98E | Q195A | I197T | K251E); assay: as above; conditions: partners not purified
T3 construct: Clathrin heavy chain, Saccharomyces cerevisiae, the ORF of CHC1 fused in the 3' with mScarlet, Clathrin and Arrestin box mutant; source: S. cerevisiae MK100, mutated plasmid pRS315-5'UTR CHC-mScarlet, endogenous CHC1 knocked out, in living cells; not shown: mScarlet, C-terminal, kept

[5] = biological target: T4, Clathrin heavy chain fused to mScarlet (Chc-mScarlet), wild type (Saccharomyces cerevisiae, UniProt P22137 1-1653); assay: as above; conditions: partners not purified
T4 construct: Clathrin heavy chain, Saccharomyces cerevisiae, the ORF of CHC1 fused in the 3' with mScarlet; also called Chc1-mScarlet; ScCHC-mScarlet; not shown: mScarlet, C-terminal, kept

[6] = biological target: T5, Chc-mScarlet Clathrin box mutant (K63E, I87D, Q89A, K98E) (Saccharomyces cerevisiae, UniProt P22137 1-1653, K63E | I87D | Q89A | K98E); assay: as above; conditions: partners not purified
T5 construct: Clathrin heavy chain, Saccharomyces cerevisiae, the ORF of CHC1 fused in the 3' with mScarlet, Clathrin box mutant; also called Cla mutant; source: S. cerevisiae MK100, mutated plasmid pRS315-5'UTR CHC-mScarlet, endogenous CHC1 knocked out, in living cells; not shown: mScarlet, C-terminal, kept
T5 sequence (P22137 whole entry K63E/I87D/Q89A/K98E, the tested form may be a part): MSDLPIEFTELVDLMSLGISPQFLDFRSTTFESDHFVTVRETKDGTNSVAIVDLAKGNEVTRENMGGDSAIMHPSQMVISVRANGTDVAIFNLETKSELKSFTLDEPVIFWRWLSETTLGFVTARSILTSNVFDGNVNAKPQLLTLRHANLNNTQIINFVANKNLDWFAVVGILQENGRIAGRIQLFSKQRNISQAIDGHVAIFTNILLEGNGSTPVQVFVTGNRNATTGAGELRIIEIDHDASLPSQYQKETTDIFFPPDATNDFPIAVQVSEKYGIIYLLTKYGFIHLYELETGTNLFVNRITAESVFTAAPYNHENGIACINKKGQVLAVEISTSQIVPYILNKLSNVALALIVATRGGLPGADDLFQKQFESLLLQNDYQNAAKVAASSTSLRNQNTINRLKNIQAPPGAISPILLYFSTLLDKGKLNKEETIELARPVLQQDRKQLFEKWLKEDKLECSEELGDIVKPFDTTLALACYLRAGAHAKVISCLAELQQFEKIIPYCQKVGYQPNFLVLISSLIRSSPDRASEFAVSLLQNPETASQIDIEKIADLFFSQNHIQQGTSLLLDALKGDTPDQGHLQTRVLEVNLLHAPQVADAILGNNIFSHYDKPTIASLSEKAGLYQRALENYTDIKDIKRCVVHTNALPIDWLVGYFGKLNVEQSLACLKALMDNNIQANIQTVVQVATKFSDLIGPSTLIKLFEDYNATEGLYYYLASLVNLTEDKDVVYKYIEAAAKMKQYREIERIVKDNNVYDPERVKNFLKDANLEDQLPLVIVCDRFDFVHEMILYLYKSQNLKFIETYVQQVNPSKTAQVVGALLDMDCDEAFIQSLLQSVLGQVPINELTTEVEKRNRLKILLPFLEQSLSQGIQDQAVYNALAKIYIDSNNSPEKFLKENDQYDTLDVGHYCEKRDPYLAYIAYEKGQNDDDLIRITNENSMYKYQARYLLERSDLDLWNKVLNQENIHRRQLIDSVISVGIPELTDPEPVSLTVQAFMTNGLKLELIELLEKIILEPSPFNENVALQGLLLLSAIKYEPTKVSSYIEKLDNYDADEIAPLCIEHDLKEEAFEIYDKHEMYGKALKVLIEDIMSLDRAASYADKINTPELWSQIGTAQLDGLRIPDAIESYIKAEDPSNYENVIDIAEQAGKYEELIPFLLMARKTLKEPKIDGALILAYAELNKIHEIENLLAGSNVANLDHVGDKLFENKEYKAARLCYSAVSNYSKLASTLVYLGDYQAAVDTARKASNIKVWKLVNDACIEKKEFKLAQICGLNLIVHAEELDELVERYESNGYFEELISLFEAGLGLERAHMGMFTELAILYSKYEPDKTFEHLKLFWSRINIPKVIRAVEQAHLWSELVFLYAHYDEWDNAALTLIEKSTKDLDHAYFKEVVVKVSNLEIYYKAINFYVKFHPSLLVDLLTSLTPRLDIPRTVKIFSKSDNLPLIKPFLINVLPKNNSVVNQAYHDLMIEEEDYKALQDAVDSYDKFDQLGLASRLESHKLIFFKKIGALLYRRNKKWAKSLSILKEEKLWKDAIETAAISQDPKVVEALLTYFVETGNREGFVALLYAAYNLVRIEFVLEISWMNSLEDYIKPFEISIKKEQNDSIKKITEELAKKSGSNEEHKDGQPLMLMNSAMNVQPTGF

T2 sequence (P22137 whole entry F26A/K63E/I87D/Q89A/K98E/Q155A, the tested form may be a part): as the sequence (P22137 whole entry K63E/I87D/Q89A/K98E, the tested form may be a part) above, with F26A, Q155A counted along it
T4 sequence (P22137 whole entry, the tested form may be a part): as the sequence (P22137 whole entry K63E/I87D/Q89A/K98E, the tested form may be a part) above, with E63K, D87I, A89Q, E98K counted along it
T3 sequence (P22137 whole entry K63E/I87D/Q89A/K98E/Q195A/I197T/K251E, the tested form may be a part): as the sequence (P22137 whole entry K63E/I87D/Q89A/K98E, the tested form may be a part) above, with Q195A, I197T, K251E counted along it
T1 sequence (P22137 whole entry F26A/K63E/I87D/Q89A/K98E/Q155A/Q195A/I197T/K251E, the tested form may be a part): as the sequence (P22137 whole entry K63E/I87D/Q89A/K98E, the tested form may be a part) above, with F26A, Q155A, Q195A, I197T, K251E counted along it

B1: Ent1 endogenously tagged with mNeonGreen (Ent1-mNeonGreen) (natural protein, UniProt Q12518 1-454, looked up)
chain: MSKQFVRSAKNLVKGYSSTQVLVRNATSNDNHQVSKDSLIELAEKSYDSADFFEIMDMLDKRLNDKGKYWRHIAKALTVIDYLIRFGSENCVLWCRENLYIIKTLKEFRHEDDEGIDQGQIVRVKAKELTALLSDDERLNEERNMNIKGRNRKGRRRRGTGRSDENDDDLQRAISASRLTAEEDERRRKQDEDYETALQLSKEEEELKRLQDLQRMQQQQGQQQLQQPMYYDIFGNPITPEEYAQFQLQQQQQQQQQQLQQQPMYYDVFGNPITPEELAQFQQQQQLQEQQYLASMQQQQQAMSNNPFAKSEQSSSSPKRNQLVAASSPQQLQQQKQQEPLIQNRTGNQSMTDKYSKLNELLATGTGIDTFGNVGEARIPAQHTKTGTFINSQGTGYRQVSDDPNHNPFLNSQYTGLPSTSVVPTQTGYGFGNQSQQQSQNNGSNNRGYTLIDL
notes: epsin Ent1, Saccharomyces cerevisiae, endogenous locus tagged with mNeonGreen; also called Ent1p; source: endogenously tagged, S. cerevisiae MK100, in living cells
Frequency of ABP+ (Abp1-positive) endocytic events, Average [1]: 33.3
FRET efficiency [2]: 4.66%
FRET efficiency [3]: 5.93%
FRET efficiency [4]: 5.25%
FRET efficiency [5]: ~8%
FRET efficiency [6]: ~5%
